The experiment has as its target T1, recombinant PDGF domain of CgVEGF with a GST tag (rCgVEGF) (Crassostrea gigas, biotin (biotinylated; site not stated)).
T1 chain: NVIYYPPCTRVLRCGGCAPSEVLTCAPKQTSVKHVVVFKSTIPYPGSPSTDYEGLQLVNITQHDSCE
Put plainly: BLI; Octet K2 (ForteBio); biotinylated rCgVEGF immobilised on streptavidin biosensors; rCgVEGFR in solution at 1150, 1125, 843.75, 632.81 and 474.61 ug/mL; global fit to a 1:1 binding model; rTrx as control analyte. The settings on record: both partners purified. On the technique in general: In BLI a coated tip is dipped into the sample, and binding shifts an interference pattern.

These results are taken from PMC12468279, “VEGF-VEGFR Signaling Mechanism Directs the Migration of Newborn Hemocytes from the Hematopoietic Site of Oyster Crassostrea gigas” (Cells, 2025).

B1: recombinant extracellular domain of CgVEGFR with a Trx tag (rCgVEGFR) (domain or fragment)
chain: QLVVVEETDCLKRPCRNGGSCDDIDGDGNFTCGCLPQWSGHFCELDTNECLNPPCEHGGTCTNSHGGYFCACTEIWTGKNCEEFKRVTIVDPKPTMEIYPERERVDSENGSIYTSSGDIVLNSGENFTIECFGDYPIKLTFKSDRVAEAPDYLGMDIIRRPIANMSQNARAFGVIYLVSNPTYKYTGEYVCQYTENSLHTSKYIYIRDEDNLFLEKNKYPGVPIFKNSYLFEPLILPCHVSDPEADVKLLTNWGTEVQLPDSPITYDPKTGFLIEFPSYSFVGPFRCAASVNNGMMQTISYYVTFNVEYKPSPTLLPLGDLEIVLGEDFELRCQVTVPLSVQSVSIQWMYSSNENNVSLPISALMIAPGQRSDRVRFTRPVEDTSMASDKSKTYFSNLTVMNGMKMDQGRYTCNVTTGRSQSTAVSKNVILVGDGLLEIQQCKKGQEIADFRGNWTVITQEQQIGVQISCLIKSMPYPKVTWYFKGEELNFKNSTVSQRYNPTMLNTTRTLTNISLSIMLPGKEQVGLYEIIVEAGTKREYAHFQLVYQYKPVVLIPAINKDVPYLLPNTRYNVRALVSAVPPATSQGWLWQPCGELPSCKQNSNSWRNVTSDNYQRFNQSGHLKYYATNSKGTGEYVMKIKVAEYETGLGIHIDQEKPSIIQTFPLHVTCTATKWEYSNVKVVFWGETDSYWRDVNIQNGTTLLSHNTSLSWISELRIENFAPENVGLYGCEVDISSNSSKGHLSTGDALRVQMISLEKPVFTKNTLTDSVVETNMGHSYHVMDCSARGVPAPSIQWFKDGQLLNFTSEFLGLSLSDDNTSLTINKTDVVHSGIYVCEVENMNGVIYKNVTLQIKSSLQSQKLKTKVEKGT
What is called Kd is the constant that tells how readily two partners part at equilibrium. For the molecule B1, the Kd is 879 nM.
